From patent EP4566619A1 (AvenCell Therapeutics Inc., dated 2025)

Legend:
CD20 [1] = target: T1, CD20 (UniProt P11836 1-297, limits assumed); assay: cell-based or functional assay
T1 sequence (looked up): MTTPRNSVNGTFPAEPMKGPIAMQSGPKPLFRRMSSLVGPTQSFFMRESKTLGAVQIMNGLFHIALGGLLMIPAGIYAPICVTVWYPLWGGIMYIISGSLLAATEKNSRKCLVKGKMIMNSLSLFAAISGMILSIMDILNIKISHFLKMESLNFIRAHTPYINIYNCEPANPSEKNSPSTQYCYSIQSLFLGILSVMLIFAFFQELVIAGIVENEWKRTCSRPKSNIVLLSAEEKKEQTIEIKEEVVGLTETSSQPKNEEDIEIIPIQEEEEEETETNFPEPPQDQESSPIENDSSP

CD19 [2] = target: T2, CD19 (UniProt P15391 20-556, limits assumed); assay: cell-based or functional assay
T2 sequence (looked up): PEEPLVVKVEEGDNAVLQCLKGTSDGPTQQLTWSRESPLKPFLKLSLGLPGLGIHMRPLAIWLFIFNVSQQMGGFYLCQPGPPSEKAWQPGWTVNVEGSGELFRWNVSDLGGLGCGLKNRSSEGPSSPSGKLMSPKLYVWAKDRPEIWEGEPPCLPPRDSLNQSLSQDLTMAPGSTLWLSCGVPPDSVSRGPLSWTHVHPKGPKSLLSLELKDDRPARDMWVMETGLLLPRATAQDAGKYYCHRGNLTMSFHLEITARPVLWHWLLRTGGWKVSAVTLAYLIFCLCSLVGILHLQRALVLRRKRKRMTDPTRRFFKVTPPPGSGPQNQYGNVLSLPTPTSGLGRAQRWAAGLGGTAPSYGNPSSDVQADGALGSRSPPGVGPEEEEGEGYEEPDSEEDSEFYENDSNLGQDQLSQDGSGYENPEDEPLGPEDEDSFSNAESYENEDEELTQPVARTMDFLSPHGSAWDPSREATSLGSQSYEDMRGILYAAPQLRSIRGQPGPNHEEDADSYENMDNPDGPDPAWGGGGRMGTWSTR

CD19 [3] = target: T2, CD19; assay: cellular binding assay, flow cytometry (gMFI) on OCI-AML3-CD19 cells
CD20 [4] = target: T1, CD20; assay: cellular binding assay, flow cytometry (gMFI) on OCI-AML3-CD20 cells

EC50 (CD19 [3]): 14.7 nM
EC50 (CD20 [4]): 24.1 nM
B1: R-TM-19/20_5 (other)
chain 1: not shown
chain 2: GQVQLVQSGAEVKKPGASVKVSCKASGYTFTHYYIYWVRQAPGQGLEWMGGVNPSNGGTHFNEKFKSRVTMTRDTSISTAYMELSRLRSDDTAVYYCARSEYDYGLGFAYWGQGTLVTVSSASTKGPSVFPLAPSSKSTSGGTAALGCLVKDYFPEPVTVSWNSGALTSGVHTFPAVLQSSGLYSLSSVVTVPSSSLGTQTYICNVNHKPSNTKVDKKVEPKSCDKTHTCPPCPAPPVAGPSVFLFPPKPKDTLMISRTPEVTCVVVDVSHEDPEVKFNWYVDGVEVHNAKTKPREEQYNSTYRVVSVLTVLHQDWLNGKEYKCKVSNKGLPSSIEKTISKAKGQPREPQVYTLPPSRDELTKNQVSLWCLVKGFYPSDIAVEWESNGQPENNYKTTPPVLDSDGSFFLYSKLTVDKSRWQQGNVFSCSVMHEALHNHYTQKSLSLSPGK
chain 3: GQVQLVESGGGLVQPGGSLRLSCAASGRTFSNYNMGWFRQAPGQGLEFVAAIDWSGGSPYYADSVKGRFTISRDNSKNTLYLQMNSLRAEDTAVYYCAAPLSYGSTWLADYWGQGTLVTVSSGGGGSGGGGSQVQLVESGGGLVQPGGSLRLSCAASGRTFSNYNMGWFRQAPGQGLEFVAAIDWSGGSPYYADSVKGRFTISRDNSKNTLYLQMNSLRAEDTAVYYCAAPLSYGSTWLADYWGQGTLVTVSSEPKSCDKTHTCPPCPAPPVAGPSVFLFPPKPKDTLMISRTPEVTCVVVDVSHEDPEVKFNWYVDGVEVHNAKTKPREEQYNSTYRVVSVLTVLHQDWLNGKEYKCKVSNKGLPSSIEKTISKAKGQPREPQVYTLPPSRDELTKNQVSLSCAVKGFYPSDIAVEWESNGQPENNYKTTPPVLDSDGSFFLVSKLTVDKSRWQQGNVFSCSVMHEALHNHYTQKSLSLSPGK
notes: Three-chain CD19/CD20 targeting module; also called R-TM 19/20_05
CD20 killing EC50 [pM] (CD20 [1]): 9.8 pM
CD19 killing EC50 [pM] (CD19 [2]): 6.2 pM
